# From article PMC12700558, “Aggregation shifts amyloid-β peptides from synaptogenic to synaptotoxic” (The Journal of Clinical Investigation, 2025)
# Assays:
# human neurons = test: NLS-TdTomato cytotoxicity assay (cytoplasmic leakage of NLS-TdTomato); settings: 5% DMSO or 200 μM hydrogen peroxide, each applied for 4 hours, DIV30
# Procedure: The MTT assay employs yellow tetrazolium dye that is reduced to a purple formazan crystal by viable cells with active metabolism ([21]). Because it measures metabolic activity in all cells, this assay serves as a broad cytotoxicity read out for the entire glia/neuron coculture system. The amount of formazan produced is then measured because it is directly proportional to the number of viable cells ([21]) (Figure 1B and Supplemental Figure 1A). The nuclear localization TdTomato assay, conversely, enables monitoring of cellular stress by tracking the localization of fluorescent TdTomato fused to a nuclear localization signal. Under healthy conditions, the nuclear localization signal directs the NLS-TdTomato to the nucleus. When toxicity in a cell causes a reduction in ATP levels, NLS-TdTomato leaks out of the nucleus into the cytoplasm, which we scored as an index of toxicity (Figure 1, C and D, and Supplemental Figure 1, B–D). Because the reporter is expressed only in neurons, this assay specifically assesses neurotoxicity within the coculture. We developed this assay because it can be performed on live cells and reflects decreases in ATP levels in these cells. […]
# To assess neuronal cytotoxicity induced by Aβ peptides, we employed a novel Td-Tomato cytotoxicity assay that we developed. […] Neurons displaying cytoplasmic Td-Tomato were counted as indicators of cytotoxicity. […]
# [1] = tested on: human neurons cocultured with mouse glia; test: Aβ42 fractionation experiment, MTT assay of supernatant and pellet; format: cell-based; settings: fractions of Aβ42 preaggregated at 37°C for 24 hours, 20,000g 15 minutes; 0.2 μM chronic, DIV45
# Procedure: Aggregation mixtures were centrifuged at 20,000g for 15 minutes at 4°C. The supernatant (enriched in monomer, small oligomers and residual larger species) was removed without disturbing the pellet. The pellet (large aggregates and high-molecular-weight oligomers) was resuspended in DMSO to the original volume. Supernatant and the resuspended pellet were administered to neurons, independently, at the concentration of 0.2 μM following the same protocol of administration used in this study (Figure 1A) and described above.
Compound,Validation of the NLS-TdTomato assay: nuclear-to-cytoplasmic shift of NLS-TdTomato (in words) (human neurons),"Loss of viability, MTT assay (in words) [1]"
OO [hydrogen peroxide],rapidly induced the nuclear-to-cytoplasmic shift of NLS-TdTomato,
"pellet: pellet of centrifuged preaggregated Aβ42, large aggregates and high-molecular-weight oligomers, resuspended in DMSO",,same loss of viability
"supernatant: supernatant of centrifuged preaggregated Aβ42, enriched in monomer, small oligomers and residual larger species",,same loss of viability
